T1: Human recombinant AXL-FND1 (GST-FND1), from pET-41b(+) (human, UniProt P30530 225-331)
T1 construct: Expressed in E. coli, purified on Glutathione Sepharose; analyte in all Biacore measurements; GST put first by the usual layout of pET-41; not shown: GST-tag of vector pET-41b(+) (Novagen)
T1 sequence (looked up): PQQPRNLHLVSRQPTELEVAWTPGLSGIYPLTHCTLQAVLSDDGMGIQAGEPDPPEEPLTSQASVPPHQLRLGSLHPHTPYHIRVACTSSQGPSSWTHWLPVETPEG


Biological target: T1, Human recombinant AXL-FND1 (GST-FND1), …
Assay: SPR (Biacore T100): antibody captured on Protein A, GST-FND1 as analyte
Protocol: Kinetic analyses of antigen-antibody reactions of humanized AXL antibodies were carried out using Biacore T100 (BIACORE). rec-Protein A (Zymed) (hereinafter, Protein A) was immobilized onto a sensor chip, various antibodies were bound to it, then an antigen as the analyte was flushed to measure the antibody-antigen interaction. Human recombinant AXL-FND1 (prepared in 2-2; hereinafter referred to as GST-FND1) prepared at various concentrations was used as the antigen. From the sensorgrams obtained through the measurements, kinetic parameters, namely binding rate constant kₐ (1/Ms) and dissociation rate constant kd (1/s), were calculated, and Kd (M) was calculated based on these values. Biacore T100 Evaluation Software (BIACORE) was used to calculate each of the parameters.
The sensor chips were produced by immobilizing approximately 3000 RU of Protein A onto CM5 (BIACORE) by amine coupling. Using the produced sensor chip, kinetic analyses were carried out on the interaction between the Protein A-bound antibodies and GST-FND1. HBS-EP+ was used as the running buffer, and the flow rate was set to 30 μL/min. Each antibody was prepared at 1 μg/mL using the running buffer, and was subjected to binding with Protein A for two minutes. GST-FND1 as the analyte was prepared at 0.5 and 2.0 μg/mL using HBS-EP+. Measurements were carried out by first binding the various humanized AXL antibodies, chimeric AXL antibodies, or mouse AXL antibodies of interest to Protein A, then applying an analyte solution to them for a two-minute interaction, and then switching to HBS-EP+ (BIACORE) for a two-minute measurement of the dissociation phase. After completion of measurement of the dissociation phase, 30 μL of 10 mM glycine-HCl (pH 2.0) was used for washing to regenerate the sensor chip. Such binding, dissociation, and regeneration were defined as one cycle of analysis. All experiments were performed at 25° C.
Affinity evaluation of each of the variants by Biacore was carried out by the method of Example 2.

| Kd | Binder |
| --- | --- |
| 1.87 nM | H46/L0 (antibody, human IgG1, kappa) heavy: not shown light: DVVMTQSPLSLPVTLGQPASISCRSSQNIVHTNGNTYLEWYQQKPGKAPELLIYKVSNRFSGVPDRFSGSGSGTDFTLKISRVEAEDVGVYYCFQGSHIPFTFGQGTKLEIKRTVAAPSVFIFPPSDEQLKSGTASVVCLLNNFYPREAKVQWKVDNALQSGNSQESVTEQDSKDSTYSLSSTLTLSKADYEKHKVYACEVTHQGLSSPVTKSFNRGEC |
| 1.9 nM | H46/L27 (antibody, human IgG1, kappa) heavy: not shown light: DVVMTQSPLSLPVTLGQPASISCRSSRNIVHTNGNTYLEWYQQKPGKAPELLIYKVSNRFSGVPDRFSGSGSGTDFTLKISRVEAEDVGVYYCFQGSHIPFTFGQGTKLEIKRTVAAPSVFIFPPSDEQLKSGTASVVCLLNNFYPREAKVQWKVDNALQSGNSQESVTEQDSKDSTYSLSSTLTLSKADYEKHKVYACEVTHQGLSSPVTKSFNRGEC |
| 3.43 nM | H39/L0 (antibody, human IgG1, kappa) heavy: not shown light: DVVMTQSPLSLPVTLGQPASISCRSSQNIVHTNGNTYLEWYQQKPGKAPELLIYKVSNRFSGVPDRFSGSGSGTDFTLKISRVEAEDVGVYYCFQGSHIPFTFGQGTKLEIKRTVAAPSVFIFPPSDEQLKSGTASVVCLLNNFYPREAKVQWKVDNALQSGNSQESVTEQDSKDSTYSLSSTLTLSKADYEKHKVYACEVTHQGLSSPVTKSFNRGEC |
| 2.92 nM | H38/L0 (antibody, human IgG1, kappa, V domains shown) VH: QVTLKESGPVLVKPTETLTLTCTVSGFSLSSFGVDWVRQAPGKGLEWMGVIWGGGSTNYNKALKSRLTISKDNSKSQVVLTMTNMDPVDTATYYCAGEGSKYGAWFAYWGQGTLVTVSS VL: DVVMTQSPLSLPVTLGQPASISCRSSQNIVHTNGNTYLEWYQQKPGKAPELLIYKVSNRFSGVPDRFSGSGSGTDFTLKISRVEAEDVGVYYCFQGSHIPFTFGQGTKLEIKR |
| 1.86 nM | H46/L28 (antibody, human IgG1, kappa) heavy: not shown light: DVVMTQSPLSLPVTLGQPASISCRSSQNIVHTNGNTYLEWYQQKPGKAPKLLIYKVSNRFSGVPDRFSGSGSGTDFTLKISRVEAEDVGVYYCFQGSHIPFTFGQGTKLEIKRTVAAPSVFIFPPSDEQLKSGTASVVCLLNNFYPREAKVQWKVDNALQSGNSQESVTEQDSKDSTYSLSSTLTLSKADYEKHKVYACEVTHQGLSSPVTKSFNRGEC |
| 1.84 nM | H46/L1 (antibody, human IgG1, kappa) heavy: not shown light: DVVMTQSPLSLPVTLGQPASISCQSSQNIVHTNGNTYLEWYQQKPGKAPELLIYKVSNRFSGVPDRFSGSGSGTDFTLKISRVEAEDVGVYYCFQGSHIPFTFGQGTKLEIKRTVAAPSVFIFPPSDEQLKSGTASVVCLLNNFYPREAKVQWKVDNALQSGNSQESVTEQDSKDSTYSLSSTLTLSKADYEKHKVYACEVTHQGLSSPVTKSFNRGEC |
| 1.9 nM | H46/L31 (antibody, human IgG1, kappa) heavy: not shown light: DVVMTQSPLSLPVTLGQPASISCRSSRNIVHTNGNTYLEWYQQKPGKAPKLLIYKVSNRFSGVPDRFSGSGSGTDFTLKISRVEAEDVGVYYCFQGSHIPFTFGQGTKLEIKRTVAAPSVFIFPPSDEQLKSGTASVVCLLNNFYPREAKVQWKVDNALQSGNSQESVTEQDSKDSTYSLSSTLTLSKADYEKHKVYACEVTHQGLSSPVTKSFNRGEC |
| 1.8 nM | H46/L11 (antibody, human IgG1, kappa) heavy: not shown light: DVVMTQSPLSLPVTLGQPASISCQSSQNIVHTNGNTYLEWYQQKPGKAPELLIYKVSNRFSGVPDRFSGSGSGTDFTLKISRVEAEDVGVYYCFQGSHIPFTFGQGTKVEIERTVAAPSVFIFPPSDEQLKSGTASVVCLLNNFYPREAKVQWKVDNALQSGNSQESVTEQDSKDSTYSLSSTLTLSKADYEKHKVYACEVTHQGLSSPVTKSFNRGEC |
| 2.35 nM | H41/L0 (antibody, human IgG1, kappa, V domains shown) VH: QVTLKESGPVLVKPTETLTLTCTVSGFSLSRFGVDWVRQARGQRLEWMGVIWGGGSTNYNSALKSRLTISKDNSKSQVVLTMTNMDPVDTATYYCAGEGSKYGAWFAYWGQGTLVTVSS VL: DVVMTQSPLSLPVTLGQPASISCRSSQNIVHTNGNTYLEWYQQKPGKAPELLIYKVSNRFSGVPDRFSGSGSGTDFTLKISRVEAEDVGVYYCFQGSHIPFTFGQGTKLEIKR |
| 3.51 nM | H40/L0 (antibody, human IgG1, kappa, V domains shown) VH: QVTLKESGPVLVKPTETLTLTCTVSGFSLSKFGVDWVRQARGQRLEWMGVIWGGGSTNYNSALKSRLTISKDNSKSQVVLTMTNMDPVDTATYYCAGEGSKYGAWFAYWGQGTLVTVSS VL: DVVMTQSPLSLPVTLGQPASISCRSSQNIVHTNGNTYLEWYQQKPGKAPELLIYKVSNRFSGVPDRFSGSGSGTDFTLKISRVEAEDVGVYYCFQGSHIPFTFGQGTKLEIKR |
| 1.88 nM | H46/L10 (antibody, human IgG1, kappa) heavy: not shown light: DVVMTQSPLSLPVTLGQPASISCRSSQNIVHTNGNTYLEWYQQKPGKAPELLIYKVSNRFSGVPDRFSGSGSGTDFTLKISRVEAEDVGVYYCFQGSHIPFTFGQGTKVEIERTVAAPSVFIFPPSDEQLKSGTASVVCLLNNFYPREAKVQWKVDNALQSGNSQESVTEQDSKDSTYSLSSTLTLSKADYEKHKVYACEVTHQGLSSPVTKSFNRGEC |

More lines, now with the values behind:

| Binder | Kd |
| --- | --- |
| H36/L11 (antibody, human IgG1, kappa) heavy: not shown light: DVVMTQSPLSLPVTLGQPASISCQSSQNIVHTNGNTYLEWYQQKPGKAPELLIYKVSNRFSGVPDRFSGSGSGTDFTLKISRVEAEDVGVYYCFQGSHIPFTFGQGTKVEIERTVAAPSVFIFPPSDEQLKSGTASVVCLLNNFYPREAKVQWKVDNALQSGNSQESVTEQDSKDSTYSLSSTLTLSKADYEKHKVYACEVTHQGLSSPVTKSFNRGEC | 2.08 nM |
| H36/L31 (antibody, human IgG1, kappa) heavy: not shown light: DVVMTQSPLSLPVTLGQPASISCRSSRNIVHTNGNTYLEWYQQKPGKAPKLLIYKVSNRFSGVPDRFSGSGSGTDFTLKISRVEAEDVGVYYCFQGSHIPFTFGQGTKLEIKRTVAAPSVFIFPPSDEQLKSGTASVVCLLNNFYPREAKVQWKVDNALQSGNSQESVTEQDSKDSTYSLSSTLTLSKADYEKHKVYACEVTHQGLSSPVTKSFNRGEC | 1.67 nM |
| H36/L37 (antibody, human IgG1, kappa) heavy: not shown light: DVVMTQSPLSLPVTLGRPASISCRSSRNIVHTNGNTYLEWYQQKPGKAPKLLIYKVSNRFSGVPDRFSGSGSGTDFTLKISRVEAEDVGVYYCFQGSHIPFTFGRGTKLEIKRTVAAPSVFIFPPSDEQLKSGTASVVCLLNNFYPREAKVQWKVDNALQSGNSQESVTEQDSKDSTYSLSSTLTLSKADYEKHKVYACEVTHQGLSSPVTKSFNRGEC | 2.2 nM |
| H36/L27 (antibody, human IgG1, kappa) heavy: not shown light: DVVMTQSPLSLPVTLGQPASISCRSSRNIVHTNGNTYLEWYQQKPGKAPELLIYKVSNRFSGVPDRFSGSGSGTDFTLKISRVEAEDVGVYYCFQGSHIPFTFGQGTKLEIKRTVAAPSVFIFPPSDEQLKSGTASVVCLLNNFYPREAKVQWKVDNALQSGNSQESVTEQDSKDSTYSLSSTLTLSKADYEKHKVYACEVTHQGLSSPVTKSFNRGEC | 1.94 nM |
| H36/L35 (antibody, human IgG1, kappa) heavy: not shown light: DVVMTQSPLSLPVTLGQPASISCRSSRNIVHTNGNTYLEWYQQKPGKAPKLLIYKVSNRFSGVPDRFSGSGSGTDFTLKISRVEAEDVGVYYCFQGSHIPFTFGRGTKLEIKRTVAAPSVFIFPPSDEQLKSGTASVVCLLNNFYPREAKVQWKVDNALQSGNSQESVTEQDSKDSTYSLSSTLTLSKADYEKHKVYACEVTHQGLSSPVTKSFNRGEC | 1.94 nM |
| H36/L28 (antibody, human IgG1, kappa) heavy: not shown light: DVVMTQSPLSLPVTLGQPASISCRSSQNIVHTNGNTYLEWYQQKPGKAPKLLIYKVSNRFSGVPDRFSGSGSGTDFTLKISRVEAEDVGVYYCFQGSHIPFTFGQGTKLEIKRTVAAPSVFIFPPSDEQLKSGTASVVCLLNNFYPREAKVQWKVDNALQSGNSQESVTEQDSKDSTYSLSSTLTLSKADYEKHKVYACEVTHQGLSSPVTKSFNRGEC | 1.95 nM |
| H36/L34 (antibody, human IgG1, kappa) heavy: not shown light: DVVMTQSPLSLPVTLGRPASISCRSSRNIVHTNGNTYLEWYQQKPGKAPKLLIYKVSNRFSGVPDRFSGSGSGTDFTLKISRVEAEDVGVYYCFQGSHIPFTFGQGTKLEIKRTVAAPSVFIFPPSDEQLKSGTASVVCLLNNFYPREAKVQWKVDNALQSGNSQESVTEQDSKDSTYSLSSTLTLSKADYEKHKVYACEVTHQGLSSPVTKSFNRGEC | 2.01 nM |
| H37/L0 (antibody, human IgG1, kappa, V domains shown) VH: QVTLKESGPVLVKPTETLTLTCTVSGFSLSSFGVDWVRQAPGKGLEWMGVIWGGGSTNYNRALKSRLTISKDNSKSQVVLTMTNMDPVDTATYYCAGEGSKYGAWFAYWGQGTLVTVSS VL: DVVMTQSPLSLPVTLGQPASISCRSSQNIVHTNGNTYLEWYQQKPGKAPELLIYKVSNRFSGVPDRFSGSGSGTDFTLKISRVEAEDVGVYYCFQGSHIPFTFGQGTKLEIKR | 2.92 nM |
